What all share (type): cell-based
One series has as its system B cell. Description: B cell growth inhibition.
The test system of a further series is IL-2 production. The series can be described thus: Co-stimulation of IL-2 production.
A further series deals with p53. Description: Immunoblotting of p53 and phosphorylated p53 in MM cells. The note with it: MM.1S cells. As for the experimental part:
(§1) MM cells were harvested and lysed using RIPA-lysis buffer (Boston Bioproducts, Ashland, Mass.) containing 5 mM EDTA, 5 mM NaF, 2 mM Na3VO4, 1 mM PMSF, 5 μg/ml leupeptin, and 5 μg/ml aprotinin. Nuclear proteins were extracted using “Nuclear Extraction Kit” (Affimetrix). After the determination of protein concentration using DC protein assay (Bio-Rad, Hercules, Calif.), β-mercaptoethanol (-ME) was added to the whole-cell lysates to a 2% final concentration. The whole cell lysates or nuclear extracts were subjected to SDS-PAGE, transferred to nitrocellulose membranes (Bio-Rad, Hercules, Calif.) or polyvinylidene fluoride membranes (Millipore, Billerica, Mass.), and immunoblotted with indicated Abs. Silver staining was carried out using “SilverQuest Staining Kit®” (Invitrogen), according to manufacturer's protocol.

Series [1] concerns LC3-II, Bim, PARP, MDM2, XIAP, cIAP, p-p70S6K. The series can be described thus: Immunoblotting/qPCR of autophagy and apoptosis proteins in MM cells. Particulars: dose-dependent. As for the experimental part: as §1
(§2) RNA was extracted using Trizol (Invitrogen) and quantified by a Nanodrop spectrophotometer (Labtech). Specifically, 5×10^6 cells were pelleted, washed with cold PBS, and resuspended in 1 mL Trizol. They were then incubated with 1-Bromo-3-chloropropane (Sigma), washed first with Isopropyl alcohol and then with 75% Ethanol, and resuspended in Nuclease Free-water (Invitrogen). After quantification, 2000 ng of RNA was used to synthesize cDNA via the Superscript II First strand synthesis Kit (Invitrogen), according to the manufacturer's instructions. To evaluate the expression levels of TP53RK, BCL2L11, MYC, Bim, E2F1, TP53, IKZF1, IKZF3, RRM1, p18CDKN2C, PSMB5, PSMB7, PSMA3 and GAPDH, quantitative real time PCR (QRT-PCR) was performed using SYBR GREEN PCR Master Mix (Applied Biosystem), after optimization of the primer conditions. cDNAs were diluted 1:100 or 1:1000 and amplified in a 20 μL reaction. Primers were used at 200 nM or 400 nM concentration. Thermal cycling conditions were: 10 minutes at 95° C., 40 cycles at 95° C. for 15 seconds, followed by 1 minute at 60° C. Real-time quantitative PCR was performed on ABI Prism 7300 Sequence Detection System (Applied Biosystems). Data were analyzed using the delta delta Ct method. GAPDH was used as an invariant control.

A further series concerns proteasome. Description: Proteasome pathway (GSEA, qPCR) and chymotrypsin-like proteasome activity assay. Particulars: H929 cells. As for the experimental part: as §2
Expression data for plasma cells from healthy donors, monoclonal gammopathy of undetermined significance (MGUS), and smoldering myeloma (SMM) were derived from GSE5900 dataset, while expression data from normal plasma cells and 65 MM patients were obtained from GSE4452 dataset, using expression profiling on Affymetrix GeneChip (t test, unpaired, equal variance). […] Data were then normalized and analyzed using D-chip software, seeking statistically significant differences among groups or in p53-target gene expression. Statistical significance was determined by Student t test. The minimal level of significance was P<0.05. […] Gene set enrichment analysis (GSEA) was performed as previously described (2) (GSEA v2.0 at http://www.broad.mit.edu/gsea) using gene set as permutation type, as well as 1,000 permutations and signal to noise as metrics for ranking genes.
Proteasome activity was measured by using Proteasome-Glo™ chymotrypsin-like cell-based assay (Promega, Madison, Wis.) according to manufacturer's protocol.

A further series has as its system TP53RK, CRBN. The series can be described thus: TP53RK and CRBN expression in MM cells (immunoblotting, qPCR). As for the experimental part:
as §1, §2
pLKO.1-based shRNA vectors were obtained from the RNAi Consortium (Broad Institute). […] After 24 h of infection, cells expressing shRNA were selected with puromycin dihydrochloride (Sigma-Aldrich) at 1-2 μg/ml for 48 h, and then examined for proliferation and/or subjected to immunoblotting analysis. For siRNA transfection, scrambled, TP53RK, CRBN, p53, c-Myc and RRM1 siRNAs were purchased from Thermo Scientific (Lafayette, Colo.). siRNA transfection was carried out by Amaxa electroporation system using “Cell Line Nucleofector® Kit V or C” solution (Lonza, Koln, Germany).

The test system of a further series is MM cells. The series can be described thus: Growth inhibition assay (MTT) / viable cell count (Trypan-blue). As for the experimental part: Cell growth was assessed by measuring 3-(4,5-dimethylthiazol-2-yl)-2,5-diphenyl […] bromide (MTT, Chemicon International, Temecula, Calif.) dye absorbance. Cells were pulsed with 10 μl of 5 mg/ml MTT to each well for the last 4 h of 48 h and/or 72 h cultures, followed by 100 μl isopropanol containing 0.04N HCl. Absorbance was measured at 570/630 nm using a spectrophotometer (Molecular Devices Corp., Sunnyvale Calif.).

For a further series, the system named is c-Myc, IKZF1/3. Description: c-Myc and IKZF1/3 expression (immunoblotting, qPCR). The note with it: MM.1S cells and H929 cells. On the procedure:
MM cells were harvested and lysed using RIPA-lysis buffer (Boston Bioproducts, Ashland, Mass.) containing 5 mM EDTA, 5 mM NaF, 2 mM Na3VO4, 1 mM PMSF, 5 μg/ml leupeptin, and 5 μg/ml aprotinin. Nuclear proteins were extracted using “Nuclear Extraction Kit” (Affimetrix). After the determination of protein concentration using DC protein assay (Bio-Rad, Hercules, Calif.), β-mercaptoethanol (-ME) was added to the whole-cell lysates to a 2% final concentration. […]
RNA was extracted using Trizol (Invitrogen) and quantified by a Nanodrop spectrophotometer (Labtech). […] After quantification, 2000 ng of RNA was used to synthesize cDNA via the Superscript II First strand synthesis Kit (Invitrogen), according to the manufacturer's instructions. To evaluate the expression levels of TP53RK, BCL2L11, MYC, Bim, E2F1, TP53, IKZF1, IKZF3, RRM1, p18CDKN2C, PSMB5, PSMB7, PSMA3 and GAPDH, quantitative real time PCR (QRT-PCR) was performed using SYBR GREEN PCR Master Mix (Applied Biosystem), after optimization of the primer conditions. cDNAs were diluted 1:100 or 1:1000 and amplified in a 20 μL reaction. […] Real-time quantitative PCR was performed on ABI Prism 7300 Sequence Detection System (Applied Biosystems). Data were analyzed using the delta delta Ct method. […]

For a further series, the system named is RRM1, p18CDKN2C. Description: RRM1 and p18CDKN2C expression (RT-qPCR, Western blot). Particulars: H929 cells. As for the experimental part:
as §1, §2

In another series the test system is hTERT. The series can be described thus: hTERT expression and telomerase activity (TeloTAGGG Telomerase PCR ELISA). The note with it: MM.1S cells and H929 cells. As for the experimental part: as §1
Telomerase activity in MM.1S and H929 cells was assessed by “TeloTAGGG Telomerase PCR ELISA®” from Roche Applied Science (Mannheim, Germany).

Entries after “also recorded” stand apart in the source; their conditions may differ.

Regarding `CC1(N2C(=O)c3cccc(N)c3C2=O)CCC(=O)NC1=O` (stereo not drawn) [3′-methyl derivative], in the series on B cell, the “activity in B cell growth inhibition relative to pomalidomide” value is listed as “similar”. In the series on IL-2 production, the “activity in co-stimulation of IL-2 production relative to pomalidomide” value was “similar”.

Regarding `CCc1cc(C(N)=O)ccc1-n1nc(C(C)C)c2c(-n3cnc(-c4cnn(C)c4)c3)ccnc21` [TAS-116], the “p-p53 modulation on Akt inhibition” value in the series with p53 is reported as “in neither case was p-p53 modulation observed”.

In the case of `CCOc1ccc(C(Nc2ccccn2)c2ccc3ccc(C)nc3c2O)cc1C` (stereo not drawn) [HLM006474], the “IMiDs-induced Bim upregulation” value in [1] is “blocked”.

B1: CRBN siRNA: SMARTpool of J-021086-9 to -12 siRNAs against CRBN (nucleic acid)
guide 1: CAAUUAGAAUCCCUCAAUA
guide 2: GUAUAAGGCUUGCAACUUG
guide 3: GACAUUACCUCUUCAGCUU
guide 4: CGACUUCGCUGUGAAUUAG
modifications: SMARTpool mixture, further chemistry not given here
notes: SMARTpool of J-021086-9 to -12 siRNAs against CRBN
For the molecule B1, in the series with proteasome, the chymotrypsin-like proteasome activity entry is on record as “not”. The “TP53RK expression after CRBN knockdown” value with TP53RK, CRBN (H929 cells) is on record as “did not change”.

B2: TP53RK siRNA: SMARTpool of J-003108-09, -10, -11, -12 siRNAs against TP53RK (Table 4) (nucleic acid)
guide 1: GGUAGAAGAAUGUGUAUGA
guide 2: GCUUCCAACUGCUUAUAUA
guide 3: GCUGAACAUUGUGCUCAUA
guide 4: GUACCCAUCCCAACACUGA
modifications: SMARTpool mixture, further chemistry not given here
As to B2, in the series on MM cells (H929 cells, siRNA knockdown), the “MM cell growth, viable cells by Trypan-blue” value is “triggered MM cell growth inhibition”. Also, the “cell growth after knock-down” value in the series with MM cells (MM.1S and H929 cells) is listed as “growth inhibition”. In addition, the “IKZF1/3 expression after TP53RK knockdown” value in the series on c-Myc, IKZF1/3 was “markedly downregulated”. In addition, in the series on RRM1, p18CDKN2C, the RRM1 expression result is “downregulation” and the p18CDKN2C expression result is “upregulation”. In addition, in the series with proteasome, the “PSMB5 PSMB7 and PSMA3 mRNA” value was “downregulation”; the chymotrypsin-like proteasome activity entry is “significantly inhibited”; the poly-ubiquitinated proteins entry is “accumulation”; the “proteasome pathway (GSEA)” value is recorded as “downregulated”. The hTERT expression result in the series on hTERT is recorded as “downregulated”. For the same molecule, in the series on TP53RK, CRBN (H929 cells (also MM.1S)), the “CRBN expression after TP53RK knock-down” value is “did not modulate; also recorded: not altered”. Also, the “TP53RK mRNA levels” value in the series on TP53RK, CRBN (MM.1S and H929 cells) is “markedly decreased”.

For the origin of these results see patent US10302644B2, “Compositions and methods for treating multiple myeloma” (Dana-Farber Cancer Institute, Inc., priority 2014, dated 2019).
